Measured values as given in paper PMC7311433, “Two novel fish paralogs provide insights into the Rid family of imine deaminases active in pre-empting enamine/imine metabolic damage” (Scientific Reports, 2020).

Legend:
[1] = target: Salmo salar RidA-1 (Salmo salar); assay: native MS; ESI mass spectra of 0.5 mg/mL protein in 10 mM ammonium formate; SsRidA-2 also after ultrafiltration on 30 kDa-cutoff membranes (retentate)
[2] = target: Salmo salar RidA-1 (Salmo salar); assay: crystal structure; sitting drop at 20 °C, protein 7.5 mg/mL in 154 mM NaCl; SsRidA-1 from 0.2 M NaCl, 0.1 M sodium acetate pH 5.0, 20% PEG 6000; SsRidA-2 from 0.1 M ammonium sulfate, 0.1 M sodium acetate, 25% PEG 4000; data at 100 K
[3] = target: Salmo salar RidA-1 (Salmo salar); assay: SEC-MALS; 200 uL of 1 mg/mL protein on Superdex 75 10/300 GL in physiological saline (0.9% w/v NaCl), 0.5 mL/min, mobile phase pH 5.8; MALS and DLS detection
[4] = target: Salmo salar RidA-2 (Salmo salar); assay: native MS; ESI mass spectra of 0.5 mg/mL protein in 10 mM ammonium formate; SsRidA-2 also after ultrafiltration on 30 kDa-cutoff membranes (retentate)
[5] = target: Salmo salar RidA-2 (Salmo salar); assay: crystal structure; sitting drop at 20 °C, protein 7.5 mg/mL in 154 mM NaCl; SsRidA-1 from 0.2 M NaCl, 0.1 M sodium acetate pH 5.0, 20% PEG 6000; SsRidA-2 from 0.1 M ammonium sulfate, 0.1 M sodium acetate, 25% PEG 4000; data at 100 K
[6] = target: Salmo salar RidA-2 (Salmo salar); assay: SEC-MALS; 200 uL of 1 mg/mL protein on Superdex 75 10/300 GL in physiological saline (0.9% w/v NaCl), 0.5 mL/min, mobile phase pH 5.8; MALS and DLS detection
[7] = target: the molecule itself; assay: as above

For Salmo salar RidA-1 (enzyme), the stoichiometry N [1] was 3, the stoichiometry N [2] was 3 and the stoichiometry N [3] was 3.

Salmo salar RidA-2 (enzyme) gave a stoichiometry N [4] of 3, a stoichiometry N [5] of 3 and a stoichiometry N [6] of 3.

B1: goat RidA (UK114) (enzyme, goat (Capra hircus))
chain: SSLVRRIISTAKAPAAIGPYSQAVLVDRTIYISGQLGMDPASGQLVPGGVVEEAKQALTNIGEILKAAGCDFTNVVKATVLLADINDFSAVNDVYKQYFQSSFPARAAYQVAALPKGGRVEIEAIAVQGPLTTASL
notes: also called ChRidA; goat UK114
With B1 the “stoichiometry N” value [7] was 3.
